One molecule from patent US12194080B2, “Methods for identification, assessment, prevention, and treatment of metabolic disorders using PM20D1 and N-lipidated amino acids” (Dana-Farber Cancer Institute, Inc., priority 2015, dated 2025) can be followed below.

Data set [1] has as its target T1, mouse PM20D1 (Mus musculus, UniProt Q8C165).
T1 construct: Full-length mouse Pm20d1 cDNA (GE Dharmacon) was subcloned with an in-frame C-terminal 6× His and FLAG® tag; made in house; host or cells: 293A (HEK293A) cells stably infected with retrovirus
T1 sequence (Q8C165 25-503): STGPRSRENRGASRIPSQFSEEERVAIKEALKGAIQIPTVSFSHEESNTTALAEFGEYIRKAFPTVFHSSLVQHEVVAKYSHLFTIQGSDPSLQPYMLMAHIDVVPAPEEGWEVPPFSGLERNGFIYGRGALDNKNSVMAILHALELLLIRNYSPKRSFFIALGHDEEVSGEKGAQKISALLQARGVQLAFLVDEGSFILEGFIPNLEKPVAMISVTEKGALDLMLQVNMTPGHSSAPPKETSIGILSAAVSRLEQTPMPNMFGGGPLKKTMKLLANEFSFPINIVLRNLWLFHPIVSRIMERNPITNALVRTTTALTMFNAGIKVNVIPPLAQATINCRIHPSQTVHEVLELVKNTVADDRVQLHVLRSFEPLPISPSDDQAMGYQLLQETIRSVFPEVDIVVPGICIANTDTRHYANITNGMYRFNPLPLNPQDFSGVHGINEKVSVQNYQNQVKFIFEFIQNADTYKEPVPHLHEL
Description: In vitro PM20D1-catalyzed synthesis of N-acyl amino acids. The data set is classed as biochemical. The following applies: PBS, 37° C., 1.5 h. Here is the method:
(§1) The concentrated media was centrifuged to remove debris (600×g, 10 min, 4° C.) and the supernatant containing PM20D1-flag was decanted into a new tube. PM20D1-Flag was immunoaffinity purified overnight at 4° C. from the concentrated media using magnetic Flag-M2 beads (Sigma Aldrich). The beads were collected, washed three times in PBS, eluted with 3× Flag peptide ([…] in PBS, Sigma Aldrich), aliquoted, and stored at −80° C. For the purification of human PM20D1-flag, hPM20D1-flag plasmid (Origene) was transiently transfected into 293A cells. After two days, the media was changed, harvested 24 h later, concentrated, and purified exactly as described above.
(§2) In vitro PM20D1-catalyzed synthesis of N-acyl amino acids was measured by incubating purified PM20D1 protein with oleate (1.5 mM) and phenylalanine (0.1 mM) in PBS (to 100 μl final volume) at 37° C. for 1.5 hrs. In vitro PM20D1-catalyzed N-acyl amino acid hydrolysis was measured by incubating purified PM20D1 protein with the indicated N-acyl amino acid (0.1 mM) in PBS (to 100 μl final volume) at 37° C. for 1.5 hrs. Reactions were terminated by placing the vials at −80° C. and the products generated in vitro were analyzed by mass spectroscopy (MS).
(§3) Briefly, frozen serum (30 μl) for polar metabolomic analyses were extracted in 160 μl of 1:1 acetonitrile/methanol with inclusion of internal standard D3, ^15N-serine (1 nmol). Activity assays (100 μl) were extracted in 400 μl 1:1 acetonitrile/methanol. Following 30 s of thorough vortexing and 1 min of bath sonication, the polar metabolite fraction (supernatant) was isolated by centrifugation at 13,000×g for 10 min. Ten μl of this supernatant was analyzed by SRM-based targeted LC-MS/MS, or untargeted LC-MS.
(§4) For separation of polar metabolites, normal-phase chromatography was performed with a […] column (50 mm×4.60 mm, Phenomenex). Mobile phases were as follows: Buffer A, acetonitrile; Buffer B, 95:5 water/acetonitrile with 0.1% formic acid or 0.2% ammonium hydroxide with 50 mM ammonium acetate for positive and negative ionization mode, respectively. The flow rate for each run started at 0.2 ml/min for 2 min, followed by a gradient starting at 0% B and increasing linearly to 100% B over the course of 15 min with a flow rate of 0.7 ml/min, followed by an isocratic gradient of 100% B for 10 min at 0.7 ml/min before equilibrating for 5 min at 0% B with a flow rate of 0.7 ml/min. MS analysis was performed with an electrospray ionization (ESI) source on an Agilent 6430 QQQ LC—MS/MS. The capillary voltage was set to 3.5 kV, and the fragmentor voltage was set to 100 V. The drying gas temperature was 325° C., the drying gas flow rate was 10 l/min, and the nebulizer pressure was 45 psi. For polar targeted and untargeted metabolomic analysis, representative metabolites were quantified by SRM of the transition from precursor to product ions (corresponding to amino acid fragment) at associated collision energies. Several representative fragmentation ions are as follows: C18:1-Ala, 352>88; C18:1-Gly, 338>74; C18:1-Phe, 428>164; C18:1-Leu/Ile, 394>130; C20:4-Phe, 450>164; C20:4-Leu/Ile, 416>130. Untargeted LC-MS was performed by scanning a mass range of m/z 50-1200, and data were exported as mzdata files and uploaded to XCMSOnline (xcmsserver.nutr.berkeley.edu) to identify metabolites that were differentially changed. For targeted metabolomics analysis, metabolites were quantified by integrating the area under the peak and were normalized to internal standard values corresponding to 1 nmol D3, ^15N-serine.

The target of data set [2] is T1, mouse PM20D1. The experiment in a line: In vitro PM20D1-catalyzed N-acyl amino acid hydrolysis. The data set is classed as biochemical. Conditions: PBS, 37° C., 1.5 h. As to the method: as §1, §2, §3, §4
Another data set concerns APOA1. Description: FLAG immunoprecipitation of PM20D1-flag from primary brown fat cells with mass spectrometry identification. The class given is binding, mouse. The text has this: The mass spectrometry identification of the indicated proteins (PM20D1 or APOA1) are indicated to the right of the gel.

“Also recorded” adds a separate entry of the source.

B1: PM20D1: purified recombinant C-terminal 6xHis/flag-tagged mouse peptidase M20 domain containing 1, a secreted enzyme (protein, listed as Homo sapiens)
chain: MAQRCVCVLALVAMLLLVFPTVSRSMGPRSGEHQRASRIPSQFSKEERVAMKEALKGAIQIPTVTFSSEKSNTTALAEFGKYIHKVFPTVVSTSFIQHEVVEEYSHLFTIQGSDPSLQPYLLMAHFDVVPAPEEGWEVPPFSGLERDGIIYGRGTLDDKNSVMALLQALELLLIRKYIPRRSFFISLGHDEESSGTGAQRISALLQSRGVQLAFIVDEGGFILDDFIPNFKKPIALIAVSEKGSMNLMLQVNMTSGHSSAPPKETSIGILAAAVSRLEQTPMPIIFGSGTVVTVLQQLANEFPFPVNIILSNPWLFEPLISRFMERNPLTNAIIRTTTALTIFKAGVKFNVIPPVAQATVNFRIHPGQTVQEVLELTKNIVADNRVQFHVLSAFDPLPVSPSDDKALGYQLLRQTVQSVFPEVNITAPVTSIGNTDSRFFTNLTTGIYRFYPIYIQPEDFKRIHGVNEKISVQAYETQVKFIFELIQNADTDQEPVSHLHKL
modifications: C-terminal 6xHis/flag tag
notes: purified recombinant C-terminal 6xHis/flag-tagged mouse peptidase M20 domain containing 1, a secreted enzyme
Consider B1, for which, in the data set with mouse PM20D1 [1] (oleate 1.5 mM, Phe 100 μM, n=3), the “conversion in the synthase direction” value is reported as 1.2±0.1%. Moreover, the “N-acyl amino acid synthase activity” value with mouse PM20D1 [1] (oleate and Phe as substrates) was “Significant formation of C18:1-Phe; also recorded: possessed enzymatic activity”. Moreover, the “conversion in the hydrolase direction” value with mouse PM20D1 [2] (C18:1-Phe 100 μM, n=3) came out at 94.0±0.8%. The “N-acyl amino acid hydrolase activity” value in the data set with mouse PM20D1 [2] (C18:1-Phe as substrate) is given as “possessed enzymatic activity”. For the same molecule, in the data set on APOA1, the “interaction with apolipoprotein 1 (APOA1)” value is recorded as “interacts with apolipoprotein 1 (APOA1)”.
